Measured values taken from publication PMC4090420.

Experiments:
[1] = target: b12 3–5 αIM (Homo sapiens scaffold (engineered FNfn10)) (UniProt P02751); experiment: SPR
b12 3–5 αIM L84A (human) = experiment: ELISA
b12 3–5 αIM H24A (human) = experiment: ELISA
b12 3–5 αIM F25A (human) = experiment: ELISA

Chain of b12 3–5 αIM (Homo sapiens scaffold (engineered FNfn10)) (P02751 whole entry, looked up, stated change not applied): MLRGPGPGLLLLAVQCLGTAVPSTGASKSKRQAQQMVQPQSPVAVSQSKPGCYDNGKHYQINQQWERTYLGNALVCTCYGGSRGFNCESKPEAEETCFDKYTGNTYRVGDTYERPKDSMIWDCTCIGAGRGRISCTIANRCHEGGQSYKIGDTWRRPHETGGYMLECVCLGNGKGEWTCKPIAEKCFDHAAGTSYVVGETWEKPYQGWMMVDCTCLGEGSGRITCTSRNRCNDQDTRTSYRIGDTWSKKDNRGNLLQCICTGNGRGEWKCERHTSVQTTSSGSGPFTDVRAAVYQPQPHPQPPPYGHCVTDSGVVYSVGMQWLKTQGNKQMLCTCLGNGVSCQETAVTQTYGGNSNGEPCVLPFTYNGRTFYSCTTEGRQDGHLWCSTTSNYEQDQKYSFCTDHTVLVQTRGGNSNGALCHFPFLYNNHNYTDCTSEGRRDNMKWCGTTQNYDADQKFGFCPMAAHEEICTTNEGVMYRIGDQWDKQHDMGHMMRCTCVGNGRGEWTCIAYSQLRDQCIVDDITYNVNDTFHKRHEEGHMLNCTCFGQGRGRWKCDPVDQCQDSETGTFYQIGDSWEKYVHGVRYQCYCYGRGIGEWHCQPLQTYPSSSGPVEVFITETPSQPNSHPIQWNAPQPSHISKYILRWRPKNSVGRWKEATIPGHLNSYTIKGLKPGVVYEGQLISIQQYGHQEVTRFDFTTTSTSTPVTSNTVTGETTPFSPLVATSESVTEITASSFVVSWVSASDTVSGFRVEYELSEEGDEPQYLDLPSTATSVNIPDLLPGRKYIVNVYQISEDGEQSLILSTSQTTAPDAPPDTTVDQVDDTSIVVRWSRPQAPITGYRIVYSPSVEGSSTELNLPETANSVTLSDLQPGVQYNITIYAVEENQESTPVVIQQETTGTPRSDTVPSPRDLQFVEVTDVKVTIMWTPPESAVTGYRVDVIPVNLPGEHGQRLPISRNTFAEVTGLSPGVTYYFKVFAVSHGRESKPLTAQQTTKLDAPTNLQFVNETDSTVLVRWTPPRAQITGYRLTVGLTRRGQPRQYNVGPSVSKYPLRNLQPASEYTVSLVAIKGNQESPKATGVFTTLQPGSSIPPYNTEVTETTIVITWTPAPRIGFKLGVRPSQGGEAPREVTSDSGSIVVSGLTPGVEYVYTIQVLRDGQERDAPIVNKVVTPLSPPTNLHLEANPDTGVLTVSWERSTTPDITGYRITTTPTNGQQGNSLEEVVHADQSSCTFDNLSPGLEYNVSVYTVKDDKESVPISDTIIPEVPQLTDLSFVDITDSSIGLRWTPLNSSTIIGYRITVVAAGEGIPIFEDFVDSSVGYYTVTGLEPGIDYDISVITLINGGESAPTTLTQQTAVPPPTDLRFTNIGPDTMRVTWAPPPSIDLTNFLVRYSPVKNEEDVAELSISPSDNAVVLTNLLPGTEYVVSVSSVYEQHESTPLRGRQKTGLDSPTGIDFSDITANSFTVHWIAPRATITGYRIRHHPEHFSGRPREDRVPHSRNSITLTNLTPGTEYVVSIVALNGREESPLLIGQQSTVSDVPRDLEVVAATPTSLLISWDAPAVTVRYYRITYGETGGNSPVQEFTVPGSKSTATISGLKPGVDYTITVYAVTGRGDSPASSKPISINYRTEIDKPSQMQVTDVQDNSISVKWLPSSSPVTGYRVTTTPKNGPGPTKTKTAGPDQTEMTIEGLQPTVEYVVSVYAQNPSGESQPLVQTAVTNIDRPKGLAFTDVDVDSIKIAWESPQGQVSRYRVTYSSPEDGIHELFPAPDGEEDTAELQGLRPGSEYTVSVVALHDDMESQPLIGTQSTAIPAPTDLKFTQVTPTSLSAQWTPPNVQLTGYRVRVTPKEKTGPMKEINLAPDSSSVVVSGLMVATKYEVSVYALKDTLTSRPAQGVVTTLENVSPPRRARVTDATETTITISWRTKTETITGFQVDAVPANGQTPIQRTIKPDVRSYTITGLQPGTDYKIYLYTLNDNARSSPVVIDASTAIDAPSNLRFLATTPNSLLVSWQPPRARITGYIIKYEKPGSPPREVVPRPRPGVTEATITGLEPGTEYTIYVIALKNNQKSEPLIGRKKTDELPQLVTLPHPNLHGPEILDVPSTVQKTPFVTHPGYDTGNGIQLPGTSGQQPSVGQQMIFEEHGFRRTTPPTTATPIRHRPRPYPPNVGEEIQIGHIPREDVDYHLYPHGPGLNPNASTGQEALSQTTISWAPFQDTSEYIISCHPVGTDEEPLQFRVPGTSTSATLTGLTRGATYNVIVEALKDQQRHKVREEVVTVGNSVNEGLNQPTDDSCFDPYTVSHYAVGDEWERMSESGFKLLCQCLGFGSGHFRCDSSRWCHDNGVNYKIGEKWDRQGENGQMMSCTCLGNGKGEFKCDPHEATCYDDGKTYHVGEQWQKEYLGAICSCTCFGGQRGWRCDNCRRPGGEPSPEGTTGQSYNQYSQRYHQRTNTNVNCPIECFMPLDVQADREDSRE

b12 Fab
Kd [1]: 43 nM | koff [1]: 0.0068 s⁻¹

b12 MAb (antibody)
fold decrease of binding against wild type b12 3–5 αIM (b12 3–5 αIM L84A (human)): 5 fold | fold decrease of binding against wild type b12 3–5 αIM (b12 3–5 αIM H24A (human)): > 10 fold | fold decrease of binding against wild type b12 3–5 αIM (b12 3–5 αIM F25A (human)): > 10 fold
